The RNAGym collection of RNA variant scans (doi:10.1021/acssynbio.7b00057)

B1: Pistol ribozyme (parent)
chain: GGGUCGUUGUUCCAUAAUCGCGUGGAUAUGGCACGCAAGUUUCUACCGGGCACCGUAAAUGUCCGACUGGAGCCGUUCGGGCGGCUAUAAACAGACCUCAGGCCCGAAGCGUGGCGGCACCUGCCGCCGGUGGUAAAAAAGAUCGGAAGAGCACACGUCU

Variants of: B1
Experiment: aptazyme ON/OFF ratio, guanine; higher = stronger switching; co-transcriptional cleavage with and without guanine

Aptazyme ON/OFF ratio, 1.02:
U7C G9C U11A C13U
U7C G9C U10A U11C C13U
U7C G9C U10A U11C C13A
U7C G9C U11A C12U
U7C G9U U10A U11G C13G
U7C G9C U11C C13G
U7C G9C U11C C13A

Aptazyme ON/OFF ratio, 1:
U7C G9C U10C U11A C12U
U7C G9C U11A C12G
U7C G9C U11C C13U

Aptazyme ON/OFF ratio, 1.09:
U7C G9C U10A U11G
U7C G9C U10C U11A C12A
U7C G9C U10G U11A
U7C G9U U10C C12A C13A
U7C G9U U10C C12A C13U
U7C G9U U10C C12A C13G
U7C G9C U10C U11A C13A
U7C G9C U10G U11A C12G C13U
U7C G9C U11G C12G C13G
U7C G9C U10C U11G C12U C13U
U7C G9C U10G U11A C12A C13G
U7C G9C U10A U11A C12G

Aptazyme ON/OFF ratio, 1.26:
U7C G9C U10A U11C C12G

Aptazyme ON/OFF ratio, 0.941:
U7C G9C U10C U11A C12G

Aptazyme ON/OFF ratio, 1.47:
U7C G9U U10A C12G

Aptazyme ON/OFF ratio, 1.06:
U7C G9U U10C U11C C12A
U7C G9U U10C C12G C13G
U7C G9U U10C C13G
U7C G9C U10A U11A C12A C13U
U7C G9U U10A U11C
U7C G9C U11G C12A C13G

Aptazyme ON/OFF ratio, 1.27:
U7C G9U U10A C12G C13U

Aptazyme ON/OFF ratio, 1.36:
U7C G9U U10A C12A C13U

Aptazyme ON/OFF ratio, 1.1:
U7C G9U U10A U11G C12A C13G
U7C G9U U10A U11G C12G C13A
U7C G9U U10A U11A C12A C13G
U7C G9U C12G C13G
U7C G9C U10G C12G C13U
U7C G9U U10C U11A C13A
U7C G9C U10C U11G C12U C13G

Aptazyme ON/OFF ratio, 1.19:
U7C G9U U10A U11A C12G C13G
U7C G9C U10G U11A C12U C13A

Aptazyme ON/OFF ratio, 1.82:
U7C G9U U10A C12A

Aptazyme ON/OFF ratio, 1.16:
U7C G9C U10G U11C C12G C13A
U7C G9U U10A U11G C12G C13U
U7C G9U U10C U11A C13U

Aptazyme ON/OFF ratio, 1.32:
U7C G9U U10A

Aptazyme ON/OFF ratio, 1.21:
U7C G9U U10A U11G C13U

Aptazyme ON/OFF ratio, 0.975:
U7C G9C U10C U11A

Aptazyme ON/OFF ratio, 1.2:
U7C G9U U10A U11A C12G C13U
U7C G9C U10G C12U

Aptazyme ON/OFF ratio, 1.24:
U7C G9U U10A C12G C13A

Aptazyme ON/OFF ratio, 1.03:
U7C G9C U11A C13A
U7C G9C U10A U11C C13G
U7C G9C U10C U11C C12G
U7C G9C U10C U11C C12A
U7C G9C U10C U11A C12U C13U
U7C G9C U10C U11A C12U C13A
U7C G9C U10C U11A C13U
U7C G9U U10A U11C C12U C13G
U7C G9U U10A U11C C13G
U7C G9C U11C C12A
U7C G9C U10C U11C C12G C13A
U7C G9C U11C C12U C13G
U7C G9C U11C C12U C13U

Aptazyme ON/OFF ratio, 1.17:
U7C G9U U10A U11A C12G C13A

Aptazyme ON/OFF ratio, 1.37:
U7C G9U U10A C12A C13A
U7C G9U U10A C12U

Aptazyme ON/OFF ratio, 1.13:
U7C G9C U10G U11C C12G C13G
U7C G9U U10A C12G C13G
U7C G9C U10G U11A C12G C13A
U7C G9C U10G C12G
U7C G9C U10A U11G C12U C13U

Aptazyme ON/OFF ratio, 0.99:
U7C G9C U10C U11C

Aptazyme ON/OFF ratio, 1.15:
U7C G9U C12G C13U
U7C G9U U10C U11A C12A C13A
U7C G9U U10C U11A C12A C13U
U7C G9C U10G U11A C12U C13U

Aptazyme ON/OFF ratio, 1.3:
U7C G9U U10A U11A C12A C13A

Aptazyme ON/OFF ratio, 1.4:
U7C G9C U10G U11A C12A C13U

Aptazyme ON/OFF ratio, 1.42:
U7C G9U U10A U11A

Aptazyme ON/OFF ratio, 1.12:
U7C G9C U11A C12G C13A
U7C G9C U10G U11C C12G C13U
U7C G9C U10G U11G C12G
U7C G9C U10A U11A C12G C13G
U7C G9C U10G C12A
U7C G9C U10A U11G C12U C13A

Aptazyme ON/OFF ratio, 1.5:
U7C G9U U10C C13U

Aptazyme ON/OFF ratio, 1.04:
U7C G9C U11C C12G C13G
U7C G9C U10A U11C
U7C G9C U11A C13G
U7C G9U U10A C13G
U7C G9U U10C C13A
U7C G9C U11A C12A C13U
U7C G9U U10C U11A C12A C13G
U7C G9U U10C U11A C13G
U7C G9C U10C U11G C12A C13U
U7C G9C U10C C13A
U7C G9C U10C C13G
U7C G9C U10A U11C C12U
U7C G9C U11C C12G
U7C G9C U11C C12U

Aptazyme ON/OFF ratio, 1.11:
U7C G9C U10G U11G
U7C G9C U10G U11G C12A
U7C G9C U10G C13A
U7C G9U C12G C13A
U7C G9C U10G U11A C12G C13G
U7C G9C U10G C12G C13A
U7C G9C U10A U11A C13A
U7C G9U U10A U11C C13A
U7C G9U U10C U11A

Aptazyme ON/OFF ratio, 1.01:
U7C G9C U10C U11C C12U

Aptazyme ON/OFF ratio, 1.14:
U7C G9C U11A C12G C13U
U7C G9U U10A U11G C12G C13G
U7C G9C U10C
U7C G9U U10A C12A C13G
U7C G9U U10A U11G C13A
U7C G9C U10C U11G C12A C13A

Aptazyme ON/OFF ratio, 1.08:
U7C G9C U10G
U7C G9C U10C U11A C12A C13A
U7C G9C U11A C12A C13A
U7C G9C U10G C13G
U7C G9C U10A U11A C12G C13A
U7C G9C U10C C13U
U7C G9C U11G C12G C13A
U7C G9C U10C U11G C12U C13A
U7C G9C U10A U11G C12U C13G

Aptazyme ON/OFF ratio, 1.18:
U7C G9U U10A U11G C12A C13U
U7C G9U U10A C13A
U7C G9U U10A U11A C12A C13U

Aptazyme ON/OFF ratio, 1.23:
U7C G9U U10A U11C C12U C13A

Aptazyme ON/OFF ratio, 1.07:
U7C G9C U11A C12G C13G
U7C G9U U10C C12G C13U
U7C G9C U11A C12A C13G
U7C G9C U11A C12A
U7C G9C U10G U11G C12U
U7C G9C U10G C13U
U7C G9C U10C U11G
U7C G9C U10C U11A C12U C13G
U7C G9C U10A U11A C12G C13U
U7C G9C U10G C12G C13G
U7C G9C U11G C12G C13U
U7C G9U U10A U11C C13U
U7C G9C U10A U11C C12A
U7C G9C U10C U11C C12G C13G
U7C G9C U11G C12A C13U

Aptazyme ON/OFF ratio, 1.29:
U7C G9U U10A U11C C12U C13U

Aptazyme ON/OFF ratio, 2.79:
U7C G9U U10C

Aptazyme ON/OFF ratio, 1.22:
U7C G9U U10A C13U

Aptazyme ON/OFF ratio, 1.05:
U7C G9U U10A U11G C12A C13A
U7C G9U U10C C12G C13A
U7C G9C U10C U11A C12A C13G
U7C G9C U10C U11A C12A C13U
U7C G9C U10G U11C
U7C G9C U10C U11A C13G
U7C G9C U10C U11G C12A C13G
U7C G9C U10A U11A C13G
U7C G9C U10A U11A C13U
U7C G9U
U7C G9C U10G U11A C12U C13G
U7C G9C U10C U11C C12G C13U
U7C G9C U11G C12A C13A
U7C G9U U10C U11C
U7C G9C U11C C12U C13A
U7C G9C U10A U11A C12U

Aptazyme ON/OFF ratio, 1.31:
U7C G9U U10A U11G
U7C G9C U10G U11A C12A C13A
